# Experimental data reported in PMC2756588.
# T1: Bzz1-2, P38822
# T1 sequence (P38822 568-633, looked up): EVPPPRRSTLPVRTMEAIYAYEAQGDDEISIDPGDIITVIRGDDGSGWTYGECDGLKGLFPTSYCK
# T2: Pex13, P80667
# T2 sequence (P80667 295-386, looked up): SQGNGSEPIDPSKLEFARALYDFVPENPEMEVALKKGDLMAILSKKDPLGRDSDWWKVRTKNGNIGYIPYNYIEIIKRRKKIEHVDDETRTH
# T3: Cdc25, P04821
# T3 sequence (P04821 50-136, looked up): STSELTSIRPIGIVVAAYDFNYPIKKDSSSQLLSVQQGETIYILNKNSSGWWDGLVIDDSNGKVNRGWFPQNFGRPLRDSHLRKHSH
# T4: Lsb3, P43603
# T4 sequence (P43603 385-451, looked up): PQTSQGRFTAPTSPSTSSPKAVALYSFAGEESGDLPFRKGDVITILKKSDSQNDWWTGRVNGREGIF
# T5: Sla1-3, P32790
# T5 sequence (P32790 344-424, looked up): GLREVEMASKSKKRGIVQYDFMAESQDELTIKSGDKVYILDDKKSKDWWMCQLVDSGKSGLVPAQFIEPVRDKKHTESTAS
# T6: Lsb1, P53281
# T6 sequence (P53281 45-122, looked up): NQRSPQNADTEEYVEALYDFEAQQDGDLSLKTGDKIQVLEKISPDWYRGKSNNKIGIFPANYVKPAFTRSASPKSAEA
# T7: Pin3, Q06449
# T7 sequence (Q06449 53-122, looked up): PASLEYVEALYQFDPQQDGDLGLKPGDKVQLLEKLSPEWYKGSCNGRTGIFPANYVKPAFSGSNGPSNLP
# T8: Nbp2, Q12163
# T8 sequence (Q12163 103-180, looked up): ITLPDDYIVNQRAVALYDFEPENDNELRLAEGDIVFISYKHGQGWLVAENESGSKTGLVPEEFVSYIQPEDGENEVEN
# T9: Bzz1-1, P38822
# T9 sequence (P38822 478-572, looked up): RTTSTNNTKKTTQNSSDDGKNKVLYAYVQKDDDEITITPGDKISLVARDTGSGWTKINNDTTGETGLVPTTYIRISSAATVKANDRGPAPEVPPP
# T10: Bud14, P27637
# T10 sequence (P27637 247-328, looked up): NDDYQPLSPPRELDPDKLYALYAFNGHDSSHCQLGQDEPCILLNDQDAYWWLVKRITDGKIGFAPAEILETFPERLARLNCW
# T11: Sla1-2, P32790
# T11 sequence (P32790 60-140, looked up): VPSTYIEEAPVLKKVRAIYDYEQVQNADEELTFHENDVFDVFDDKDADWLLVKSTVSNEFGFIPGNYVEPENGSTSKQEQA
# T12: Hse1, P38753
# T12 sequence (P38753 208-285, looked up): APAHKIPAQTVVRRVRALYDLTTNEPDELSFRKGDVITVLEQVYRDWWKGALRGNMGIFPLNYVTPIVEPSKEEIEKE
# T13: Boi2, P39969
# T13 sequence (P39969 32-116, looked up): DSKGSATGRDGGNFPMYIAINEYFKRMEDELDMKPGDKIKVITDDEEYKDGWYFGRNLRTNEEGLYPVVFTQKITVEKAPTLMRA
# T14: Cyk3, Q07533
# T14 sequence (Q07533 1-83, looked up): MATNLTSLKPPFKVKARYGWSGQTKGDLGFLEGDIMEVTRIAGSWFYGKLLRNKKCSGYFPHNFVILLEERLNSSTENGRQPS
# T15: Abp1, P15891
# T15 sequence (P15891 535-592, looked up): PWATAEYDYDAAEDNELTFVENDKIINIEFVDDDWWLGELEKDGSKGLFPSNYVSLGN
# T16: Myo5, Q04439
# T16 sequence (Q04439 1072-1160, looked up): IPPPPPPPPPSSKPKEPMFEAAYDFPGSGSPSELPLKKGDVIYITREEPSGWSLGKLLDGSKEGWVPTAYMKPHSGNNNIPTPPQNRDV
# T17: Lsb4, P32793
# T17 sequence (P32793 402-468, looked up): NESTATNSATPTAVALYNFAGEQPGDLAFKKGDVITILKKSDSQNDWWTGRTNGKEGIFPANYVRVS
# T18: Bbc1, P47068
# T18 sequence (P47068 1-78, looked up): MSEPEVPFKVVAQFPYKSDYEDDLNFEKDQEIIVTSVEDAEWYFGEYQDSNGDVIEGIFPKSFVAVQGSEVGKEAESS
# T19: Hof1, Q05080
# T19 sequence (Q05080 590-669, looked up): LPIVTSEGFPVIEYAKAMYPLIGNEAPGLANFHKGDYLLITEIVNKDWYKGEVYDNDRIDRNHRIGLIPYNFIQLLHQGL
# T20: Fus1, P11710
# T20 sequence (P11710 432-512, looked up): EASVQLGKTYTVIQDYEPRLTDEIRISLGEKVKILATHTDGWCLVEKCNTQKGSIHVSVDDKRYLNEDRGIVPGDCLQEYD
# T21: Boi1, P38041
# T21 sequence (P38041 1-86, looked up): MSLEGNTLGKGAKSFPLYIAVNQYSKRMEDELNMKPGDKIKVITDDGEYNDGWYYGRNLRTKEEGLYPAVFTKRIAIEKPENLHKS
# Molecular target: T1, Bzz1-2, P38822
# Assay: SPOT array
# Conditions: median of control spots 4538
row,Binder,SPOT intensity
1,VDFTLPPPPPPPGLD,1
2,MFLISPPASPPPEFD,0
3,DLPLPDLPPEPPTEL,0

# Molecular target: T2, Pex13, P80667
# Assay: SPOT array
# Conditions: median of control spots 1341
row,Binder,SPOT intensity
1,VDFTLPPPPPPPGLD,2
2,MFLISPPASPPPEFD,12
3,DLPLPDLPPEPPTEL,0

# Molecular target: T3, Cdc25, P04821
# Assay: SPOT array
# Conditions: median of control spots 969
row,Binder,SPOT intensity
1,VDFTLPPPPPPPGLD,0
2,MFLISPPASPPPEFD,2
3,DLPLPDLPPEPPTEL,2

# Molecular target: Bem1-2, P29366
# Assay: SPOT array
# Conditions: median of control spots 4347
# Chain of Bem1-2, P29366 (P29366 139-227): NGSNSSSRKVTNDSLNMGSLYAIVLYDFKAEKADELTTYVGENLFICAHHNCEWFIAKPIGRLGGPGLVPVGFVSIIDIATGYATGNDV
row,Binder,SPOT intensity
1,VDFTLPPPPPPPGLD,0
2,MFLISPPASPPPEFD,0
3,DLPLPDLPPEPPTEL,0

# Molecular target: Rvs167, P39743
# Assay: SPOT array
# Conditions: median of control spots 2707
# Chain of Rvs167, P39743 (P39743 419-482): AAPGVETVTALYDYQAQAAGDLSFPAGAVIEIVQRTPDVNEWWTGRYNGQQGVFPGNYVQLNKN
row,Binder,SPOT intensity
1,VDFTLPPPPPPPGLD,0
2,MFLISPPASPPPEFD,0
3,DLPLPDLPPEPPTEL,0

# Molecular target: T4, Lsb3, P43603
# Assay: SPOT array
# Conditions: median of control spots 406
row,Binder,SPOT intensity
1,VDFTLPPPPPPPGLD,0
2,MFLISPPASPPPEFD,0
3,DLPLPDLPPEPPTEL,0

# Molecular target: T5, Sla1-3, P32790
# Assay: SPOT array
# Conditions: median of control spots 5475
row,Binder,SPOT intensity
1,VDFTLPPPPPPPGLD,0
2,MFLISPPASPPPEFD,0
3,DLPLPDLPPEPPTEL,0

# Molecular target: T6, Lsb1, P53281
# Assay: SPOT array
# Conditions: median of control spots 388
row,Binder,SPOT intensity
1,VDFTLPPPPPPPGLD,0
2,MFLISPPASPPPEFD,0
3,DLPLPDLPPEPPTEL,0

# Molecular target: T7, Pin3, Q06449
# Assay: SPOT array
# Conditions: median of control spots 2171
row,Binder,SPOT intensity
1,VDFTLPPPPPPPGLD,0
2,MFLISPPASPPPEFD,65
3,DLPLPDLPPEPPTEL,0

# Molecular target: GST
# Assay: SPOT array
# Conditions: median of control spots 978
row,Binder,SPOT intensity
1,VDFTLPPPPPPPGLD,0
2,MFLISPPASPPPEFD,0
3,DLPLPDLPPEPPTEL,1

# Molecular target: T8, Nbp2, Q12163
# Assay: SPOT array
# Conditions: median of control spots 357
row,Binder,SPOT intensity
1,VDFTLPPPPPPPGLD,0
2,MFLISPPASPPPEFD,0
3,DLPLPDLPPEPPTEL,0

# Molecular target: T9, Bzz1-1, P38822
# Assay: SPOT array
# Conditions: median of control spots 4446
row,Binder,SPOT intensity
1,VDFTLPPPPPPPGLD,1
2,MFLISPPASPPPEFD,0
3,DLPLPDLPPEPPTEL,0

# Molecular target: T10, Bud14, P27637
# Assay: SPOT array
# Conditions: median of control spots 956
row,Binder,SPOT intensity
1,VDFTLPPPPPPPGLD,0
2,MFLISPPASPPPEFD,0
3,DLPLPDLPPEPPTEL,0

# Molecular target: T11, Sla1-2, P32790
# Assay: SPOT array
# Conditions: median of control spots 712
row,Binder,SPOT intensity
1,VDFTLPPPPPPPGLD,1
2,MFLISPPASPPPEFD,0
3,DLPLPDLPPEPPTEL,0

# Molecular target: T12, Hse1, P38753
# Assay: SPOT array
# Conditions: median of control spots 1727
row,Binder,SPOT intensity
1,VDFTLPPPPPPPGLD,0
2,MFLISPPASPPPEFD,0
3,DLPLPDLPPEPPTEL,0

# Molecular target: T13, Boi2, P39969
# Assay: SPOT array
# Conditions: median of control spots 1161
row,Binder,SPOT intensity
1,VDFTLPPPPPPPGLD,0
2,MFLISPPASPPPEFD,0
3,DLPLPDLPPEPPTEL,1

# Molecular target: Myo3, P36006
# Assay: SPOT array
# Conditions: median of control spots 468
row,Binder,SPOT intensity
1,VDFTLPPPPPPPGLD,491
2,MFLISPPASPPPEFD,326
3,DLPLPDLPPEPPTEL,262

# Molecular target: T14, Cyk3, Q07533
# Assay: SPOT array
# Conditions: median of control spots 1451
row,Binder,SPOT intensity
1,VDFTLPPPPPPPGLD,0
2,MFLISPPASPPPEFD,1
3,DLPLPDLPPEPPTEL,0

# Molecular target: T15, Abp1, P15891
# Assay: SPOT array
# Conditions: median of control spots 935
row,Binder,SPOT intensity
1,VDFTLPPPPPPPGLD,0
2,MFLISPPASPPPEFD,0
3,DLPLPDLPPEPPTEL,0

# Molecular target: T16, Myo5, Q04439
# Assay: SPOT array
# Conditions: median of control spots 471
row,Binder,SPOT intensity
1,VDFTLPPPPPPPGLD,367
2,MFLISPPASPPPEFD,219
3,DLPLPDLPPEPPTEL,101

# Molecular target: T17, Lsb4, P32793
# Assay: SPOT array
# Conditions: median of control spots 397
row,Binder,SPOT intensity
1,VDFTLPPPPPPPGLD,0
2,MFLISPPASPPPEFD,0
3,DLPLPDLPPEPPTEL,0

# Molecular target: T18, Bbc1, P47068
# Assay: SPOT array
# Conditions: median of control spots 796
row,Binder,SPOT intensity
1,VDFTLPPPPPPPGLD,0
2,MFLISPPASPPPEFD,0
3,DLPLPDLPPEPPTEL,0

# Molecular target: T19, Hof1, Q05080
# Assay: SPOT array
# Conditions: median of control spots 4086
row,Binder,SPOT intensity
1,VDFTLPPPPPPPGLD,143
2,MFLISPPASPPPEFD,1
3,DLPLPDLPPEPPTEL,566

# Molecular target: Sho1, P40073
# Assay: SPOT array
# Conditions: median of control spots 1148
# Chain of Sho1, P40073 (P40073 287-367): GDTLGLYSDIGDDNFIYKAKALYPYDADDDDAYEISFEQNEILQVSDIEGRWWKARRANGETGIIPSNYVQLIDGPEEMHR
row,Binder,SPOT intensity
1,VDFTLPPPPPPPGLD,0
2,MFLISPPASPPPEFD,0
3,DLPLPDLPPEPPTEL,0

# Molecular target: Bem1-1, P29366
# Assay: SPOT array
# Conditions: median of control spots 4282
# Chain of Bem1-1, P29366 (P29366 55-141): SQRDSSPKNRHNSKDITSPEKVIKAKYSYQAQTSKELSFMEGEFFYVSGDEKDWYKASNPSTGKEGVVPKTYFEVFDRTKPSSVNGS
row,Binder,SPOT intensity
1,VDFTLPPPPPPPGLD,0
2,MFLISPPASPPPEFD,0
3,DLPLPDLPPEPPTEL,3

# Molecular target: T20, Fus1, P11710
# Assay: SPOT array
# Conditions: median of control spots 1200
row,Binder,SPOT intensity
1,VDFTLPPPPPPPGLD,0
2,MFLISPPASPPPEFD,0
3,DLPLPDLPPEPPTEL,0

# Molecular target: T21, Boi1, P38041
# Assay: SPOT array
# Conditions: median of control spots 1162
row,Binder,SPOT intensity
1,VDFTLPPPPPPPGLD,2
2,MFLISPPASPPPEFD,2
3,DLPLPDLPPEPPTEL,2
